Results from publication PMC6947844 (Antibody therapeutics, 2019).

Molecular target: Human EGFRvIII extracellular domain (ECD) C-terminal His-tagged protein (Homo sapiens, deletion of amino acids 6 to 273)
Assay: BLI

B1: monoclonal antibody 40H3 (antibody, V domains shown)
VH: QVQLKQSGPGLVQPSQSLSITCTVSGFSLTNYGIHWLRQSPGKGLEWLGMMWRGGGTDYNAAFISRLTITKDTSKSQVFFRMNNLQTNDTAIYYCARKGVGMGLGYWGQGTSVTVSS
VL: DIQMTQSPASQSASLGESVTITCLASQTIGTWVAWYQQKPGRSPQLLIYGATNLADGVPSRFSGSGSGTKFSFKISSLQAEDFVSYYCQQLYSNPYTFGGGTKLEIK
- Kd: ~0.27 nM
